Test results: patent US20080311122A1, “Antagonists of Hmgb1 and/or Rage and Methods of Use Thereof” (Medimmune, LLC, priority 2005, published 2008)
Entries after “also recorded” stand apart in the source; their conditions may differ.

Tests used:
[1] = biological target: T1, HMG1 (recombinant, native; immobilized, soluble) (Homo sapiens, UniProt P09429); experiment: Direct and sandwich (capture) ELISA comparing forms of HMG1; assay type: binding; conditions: capture ELISA
T1 construct: made in house; host or cells: E. coli
T1 sequence (P09429 1-215): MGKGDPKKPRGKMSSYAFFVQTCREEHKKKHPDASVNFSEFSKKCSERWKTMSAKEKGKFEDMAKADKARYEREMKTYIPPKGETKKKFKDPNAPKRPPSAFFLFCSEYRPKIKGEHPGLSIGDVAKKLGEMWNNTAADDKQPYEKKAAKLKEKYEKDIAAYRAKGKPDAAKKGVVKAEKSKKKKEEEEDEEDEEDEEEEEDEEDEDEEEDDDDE
Outline: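 Direct format: HMGB-1 coated at 5 μg/ml, human anti-HMG1 antibodies titrated, anti-human IgG-HRP, A450. Sandwich format: antibodies (from 20 μg/ml, serial dilutions) captured on anti-human IgG Fc, then soluble HMGB1 at 2 μg/ml (native 0.7 μg/ml), mouse anti-HMGB1 at 1 μg/ml, anti-mouse IgG-HRP, A450; steps 1 h, 37° C.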

[2] = system: active CIA mouse model of arthritis; experiment: Active collagen-induced arthritis (CIA) mouse model; assay type: in vivo; conditions: percent protection, isotype control subtracted
Experimental: Induction of Active Collagen Induced Arthritis (CIA) in Mice: Six-eight week old male DBA/1J mice (Jackson Labs, Bar Harbor, Me.) were used. On day 0, isoflurane anesthetized animals were given an intradermal injection, at base of tail, of 200 μg bovine Type II collagen (CII) dissolved in 50 μl 0.1 N acetic acid and emulsified with an equal volume of complete Freund's adjuvant (Chondrex, Redmond, Wash.). Three weeks later on day 21 they were given a second similar intradermal injection of 100 μg of CII dissolved in 25 μl 0.1N acetic acid and emulsified with an equal volume of incomplete Freund's adjuvant (Difco, Detroit, Mich.).
Monitoring Disease in Mice: Beginning at day 14 all animals were observed daily to assess the status of the disease in their paws, which was done by assigning a qualitative clinical score to each of the paws. Every day, each animal has its 4 paws scored according to its state of clinical disease. The scoring is done by two observers, with at least one blinded. In addition, each mouse is weighed, to follow body weight changes, at the same time the paws are scored.
The grading scale for the 4 lateral digits of each paw are graded as involved or not involved, i.e., 1 or 0. For example, a maximally involved left rear paw would be scored: ankle=3, midfoot=3, digits=4 (clinical score=10 units) We would repeat this for each paw and sum the scores. […]

[3] = system: heat inactivated S. aureus induced peritonitis; experiment: S. aureus mouse model of peritonitis; assay type: in vivo
Experimental: Induction of Peritonitis: Four-six week old female BALB/c mice were used. […] For determination of HMG1 levels on day 0 approximately 10^9 heat inactivated S. aureus (strain 8325-4) cells premixed with 20 mg of galactosamine or galactosamine alone in a 200 μl volume of PBS was administered i.p. A third group of animals was not challenged. Animals were euthanized at 2, 8, and 12 hours after challenge by CO2 inhalation and blood was collected by cardiac puncture. For the antibody treatment studies on day 0 approximately 10^9 heat inactivated S. aureus (strain 8325-4) cells premixed with 20 mg of galactosamine were administered i.p. in a 200 μl volume and the following treatments were administered i.p. in a 100 μl volume 30 minutes prior to challenge as shown in Table 7.
The animals were also weighed 2× weekly. Animals showing signs of significant morbidity were euthanized. On day 15 all surviving animals were euthanized (euthanized sooner if significant morbidity observed).

[4] = biological target: T2, native (thymus) HMG1 binding to RAGE/Fc (Bos taurus, UniProt P10103); experiment: Inhibition of native HMG1 binding to Rage-Fc (ELISA); set-up: species or system bovine; conditions: at the concentrations tested
T2 construct: from tissue; host or cells: bovine (calf) thymus
T2 sequence (P10103 2-215 limits assumed): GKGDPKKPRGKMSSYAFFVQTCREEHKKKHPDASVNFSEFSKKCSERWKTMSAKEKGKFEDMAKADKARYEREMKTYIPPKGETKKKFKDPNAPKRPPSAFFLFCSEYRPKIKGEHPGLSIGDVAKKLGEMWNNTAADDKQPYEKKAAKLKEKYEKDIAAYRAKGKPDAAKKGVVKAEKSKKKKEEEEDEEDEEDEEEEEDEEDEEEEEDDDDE
Experimental: Inhibition of Native HMG1 Binding to Rage-Fc: Recombinant RAGE/Fc was coated on ELISA plate at 5 μg/mL, 0.1 mL/well. HMGB1 (0.5 μg/mL) was pre-incubated with anti-HMGB1 mAb clone E-11 or G-4 at different concentrations for 0.5 hr. After blocking the plate, anti-HMGB1 mAb pre-incubated HMGB1 was added to RAGE/Fc coated plate for 2 hr. RAGE bound HMGB1 was detected with Biotin labeled anti-HMGB1 pAb.

B1: S16: human anti-HMG1 antibody, ATCC PTA-6259; VL/VH aa SEQ ID NO: 13/15 (antibody, listed as Homo sapiens, V domains shown)
VH: EVQLLESGGGLVQPGGSLRLSCAASGFTFSWYSMLWVRQAPGKGLEWVSYISPSGGFTNYADSVKGRFTISRDNSKNTLYLQMNSLRAEDTAVYYCARWDYNSGWYYDHWGQGTLVTVSS
VL: AQDIQMTQSPDTLSLSPGERATLSCRASQSVNSRNLAWYQQKPGQAPRLLIYGASTRATGIPDRFSGSVSGTEFTLTISSLQPDDFATYYCQQYNSYFTFGQGTKLEIK
In the case of B1, the “binding to native nuclear, necrotic (released) and activated HMG1” value [1] is reported as “little difference in binding to the various native forms of HMG1”.

B2: E11: human anti-HMG1 antibody, recognizes HMG1 A-Box; VL/VH aa SEQ ID NO: 24/26 (antibody, listed as Homo sapiens, V domains shown)
VH: EVQLLESGGGLVQPGGSLRLSCAASGFTFSRYQMNWVRQAPGKGLEWVSSISPSGGHTHYADSVKGRFTISRDNSKNTLYLQMNSLRAEDTAVYYCAKDGRQGKISTVDHWGQGTLVTVSS
VL: AQDIQMTQSPGTLSLSPGERATLSCRASQSVRSNFLAWYQQKPGQAPRLLIYGASRRASGIPDRFSGSGFGADFTLSISRLEPEDFAVYYCQQYGSSPNTFGQGSRVEIK
With B2 the “in vivo CIA active” value [2] was 0%, the mice survived ([3]; lethal dose of heat inactivated S. aureus) was 8% and the “in vivo S. aureus” value ([3]; percent protection, isotype control subtracted) was 8%. For the same molecule, the “block of native (thymus) HMG1 binding to RAGE” value [4] was “significant ability to block the binding of native HMG1 to RAGE; also recorded: can block native HMG1 binding”.
